# Source: article PMC10173331
# Read-outs that look alike come from different tables or passages of the source.
# Tests used:
# [1] = molecular target: T1, clusterin (apolipoprotein J) (UniProt P10909 23-449); test: AuNP colorimetric aggregation assay
# [2] = molecular target: T1, clusterin (apolipoprotein J); test: AuNP colorimetric aggregation assay; remark: listed apart in the source
# T1 sequence (P10909 23-449): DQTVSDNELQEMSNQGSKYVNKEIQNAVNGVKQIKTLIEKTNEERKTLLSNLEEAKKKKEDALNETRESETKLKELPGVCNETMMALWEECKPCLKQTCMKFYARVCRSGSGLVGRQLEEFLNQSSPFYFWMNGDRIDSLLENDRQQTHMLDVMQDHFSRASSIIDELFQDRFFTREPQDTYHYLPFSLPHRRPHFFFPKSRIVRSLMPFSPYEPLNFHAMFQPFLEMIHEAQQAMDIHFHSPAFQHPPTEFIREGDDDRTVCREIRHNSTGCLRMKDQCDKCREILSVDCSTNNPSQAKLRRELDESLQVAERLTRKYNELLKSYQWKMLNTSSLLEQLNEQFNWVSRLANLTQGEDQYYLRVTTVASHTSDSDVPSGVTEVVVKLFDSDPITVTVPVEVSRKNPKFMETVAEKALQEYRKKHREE
Binder,binding result [1],binding result [2]
CTCCTCTGACTGTAACCACGTTAGGCGAGAACATGTCAGT (ssDNA) [clusterin 2],binds,–
clusterin 1 (ssDNA) DNA: CTCCTCTGACTGTAACCACGTTAGGCGAGAACATGTCAGTACGTCGACGTTCTACTTGCTGCATAGGTAGTCCAGAAGCC,–,binds
